In article PMC3591605:
pKd: −log10 of the molar value.

Target: histones (calf thymus, type IIIS) (calf (thymus)) (UniProt P02253)
Experiment: ITC

Sequence of UniProt P02253 (P02253 whole entry): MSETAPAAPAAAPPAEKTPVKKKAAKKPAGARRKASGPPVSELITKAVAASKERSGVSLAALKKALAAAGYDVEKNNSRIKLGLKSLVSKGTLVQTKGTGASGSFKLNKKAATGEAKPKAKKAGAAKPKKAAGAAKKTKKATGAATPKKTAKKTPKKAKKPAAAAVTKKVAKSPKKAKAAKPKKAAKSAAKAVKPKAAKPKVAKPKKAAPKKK

large fibrin degradation products (molecular masses >150 kDa) (from UniProt P02671 36-866; P02675 45-491; P02679 27-453) (complex)
pKd: 6.72
